Measurements as given in patent US20240124560A1.

Experiments:
Assay in all cases: cell-based or functional assay
[1] = target: HIV-1 Env of NIH-022_ZM233M.PB6 (HIV-1)
[2] = target: HIV-1 Env of NIH-053_CNE52 (HIV-1)
[3] = target: HIV-1 Env of NIH-099_3301.v1.c24 (HIV-1)
[4] = target: HIV-1 Env of NAC_BaL.26 (HIV-1)
[5] = target: HIV-1 Env of pseudovirus NIH-086_X2131 C1 B5 (clade G) (HIV-1)
[6] = target: HIV-1 Env of NIH-018_Du172.17 (HIV-1)
[7] = target: HIV-1 Env of NIH-009_1006.11.C3.1601 (HIV-1)
[8] = target: HIV-1 Env of NIH-010_1054.07.TC4.1499 (HIV-1)
[9] = target: HIV-1 Env of pseudovirus NIH-008_WEAU.d15.410.787 (HIV-1)
[10] = target: HIV-1 Env of pseudovirus NIH-023_ZM249M.PL1 (HIV-1)
[11] = target: HIV-1 Env of pseudovirus NIH-091_231965.c01 (clade D) (HIV-1)
[12] = target: HIV-1 Env of NIH-103_0815.v3.c3 (HIV-1)
[13] = target: HIV-1 Env of NAC_BG505 (HIV-1)
[14] = target: HIV-1 Env of NIH-079_BJOX010000.06.2 (HIV-1)
[15] = target: HIV-1 Env of NIH-095_6480.v4.c25 (HIV-1)
[16] = target: HIV-1 Env of NAC_93IN905 (HIV-1)
[17] = target: HIV-1 Env of isolate NIH-088_X1632 S2 B10 (HIV-1)
[18] = target: HIV-1 Env of NIH-078_BJOX015000.11.5 (HIV-1)
[19] = target: HIV-1 Env of NAC_SS1196.1 (HIV-1)
[20] = target: HIV-1 Env of pseudovirus NIH-081_BJOX028000.10.3 (HIV-1)
[21] = target: HIV-1 Env of pseudovirus NAC_SF162 (HIV-1)
[22] = target: HIV-1 Env of pseudovirus NIH-011_1056.10.TA11.1826 (HIV-1)
[23] = target: HIV-1 Env of NIH-026_ZM135M.PL10a (HIV-1)
[24] = target: HIV-1 Env of NIH-100_6041.v3.c23 (HIV-1)
[25] = target: HIV-1 Env of pseudovirus NAC_92RW020 (HIV-1)
[26] = target: HIV-1 Env of pseudovirus NIH-108_T235.47 (HIV-1)
[27] = target: HIV-1 Env of NIH-040_Ce703010054 2A2 (HIV-1)
[28] = target: HIV-1 Env of NAC_HxB2 (HIV-1) (UniProt P04578)
[29] = target: HIV-1 Env of pseudovirus NIH-059_Q461ENVe2 (HIV-1)
[30] = target: HIV-1 Env of pseudovirus NAC_94UG103 (HIV-1)
[31] = target: HIV-1 Env of NIH-044_ZM247F.F7 (HIV-1)
[32] = target: HIV-1 Env of NIH-070_R2184.c04 (HIV-1)
[33] = target: HIV-1 Env of pseudovirus NIH-083_P0402 c2 11 (clade G) (HIV-1)
[34] = target: HIV-1 Env of pseudovirus NAC_RHPA4.7 (HIV-1)
[35] = target: HIV-1 Env of NIH-104_3103.v3.c10 (HIV-1)
[36] = target: HIV-1 Env of NAC_92RW020 (HIV-1)
[37] = target: HIV-1 Env of NIH-043_ZM249M.B10 (HIV-1)
[38] = target: HIV-1 Env of NIH-119_T211.9 (HIV-1)
[39] = target: HIV-1 Env of NIH-042_ZM246F.D5 (HIV-1)
[40] = target: HIV-1 Env of NIH-005_TRO.11 (HIV-1)
[41] = target: HIV-1 Env of pseudovirus NAC_KNH1144 (HIV-1)
[42] = target: HIV-1 Env of pseudovirus NHI-028_CAP210.E8 (HIV-1)
[43] = target: HIV-1 Env of NIH-108_T235.47 (HIV-1)
[44] = target: HIV-1 Env of NIH-038_Ce1172 H1 (HIV-1)
[45] = target: HIV-1 Env of pseudovirus NAC_YU2 (HIV-1) (UniProt P35961)
[46] = target: HIV-1 Env of pseudovirus NIH-101_6540.v4.c1 (HIV-1)

VRC01 (antibody)
IC80 neutralization [1]: 5.69 µg/mL
IC80 neutralization [2]: 0.565 µg/mL
IC80 neutralization [3]: 0.463 µg/mL
IC80 neutralization [4]: 0.037 µg/mL
IC50 (µg/ml), TZM-bl cell neutralization assay, pseudovirus [5]: 0.073 µg/mL
IC80 neutralization [6]: > 50 µg/mL
IC80 neutralization [7]: 0.571 µg/mL
IC80 neutralization [8]: 3.62 µg/mL
neutralization IC50 [9]: 0.076 µg/mL
neutralization IC50 [10]: 0.05 µg/mL
IC50 (µg/ml), TZM-bl cell neutralization assay, pseudovirus [11]: 0.183 µg/mL
IC80 neutralization [12]: 0.07 µg/mL
IC80 neutralization [13]: 0.213 µg/mL
IC80 neutralization [14]: 7.79 µg/mL
IC80 neutralization [15]: 0.054 µg/mL
IC80 neutralization [16]: 0.28 µg/mL
IC80 (µg/ml), TZM-bl pseudovirus neutralization [17]: 1.35 µg/mL
IC80 neutralization [18]: 0.242 µg/mL
IC80 neutralization [19]: 0.659 µg/mL
neutralization IC50 [20]: 0.141 µg/mL
neutralization IC50 [21]: 0.262 µg/mL
neutralization IC50 [22]: 0.372 µg/mL
IC80 neutralization [23]: 0.379 µg/mL
IC80 neutralization [24]: 0.087 µg/mL
neutralization IC50 [25]: 0.206 µg/mL
neutralization IC50 [26]: 0.021 µg/mL
IC80 neutralization [27]: 0.595 µg/mL
IC80 neutralization [28]: 0.081 µg/mL
neutralization IC50 [29]: 0.195 µg/mL
neutralization IC50 [30]: 0.187 µg/mL
IC80 neutralization [31]: 0.945 µg/mL
IC80 neutralization [32]: 0.413 µg/mL
IC50 (µg/ml), TZM-bl cell neutralization assay, pseudovirus [33]: 0.04 µg/mL
neutralization IC50 [34]: 0.035 µg/mL
IC80 neutralization [35]: 6.21 µg/mL
IC80 neutralization [36]: 0.811 µg/mL
IC80 neutralization [37]: 0.275 µg/mL
IC80 neutralization [38]: > 50 µg/mL
IC80 neutralization [39]: 43.7 µg/mL
IC80 neutralization [40]: 0.912 µg/mL
neutralization IC50 [41]: 0.134 µg/mL
neutralization IC50 [42]: > 50 µg/mL
IC80 neutralization [43]: 0.084 µg/mL
IC80 neutralization [44]: > 50 µg/mL
neutralization IC50 [45]: 0.123 µg/mL
neutralization IC50 [46]: > 50 µg/mL

PGZL1 (antibody)
IC80 neutralization [1]: 23.6 µg/mL
IC80 neutralization [2]: > 50 µg/mL
IC80 neutralization [3]: > 50 µg/mL
IC80 neutralization [4]: > 50 µg/mL
IC50 (µg/ml), TZM-bl cell neutralization assay, pseudovirus [5]: 0.885 µg/mL
IC80 neutralization [6]: 1.6 µg/mL
IC80 neutralization [7]: > 50 µg/mL
IC80 neutralization [8]: 20.2 µg/mL
neutralization IC50 [9]: 10 µg/mL
neutralization IC50 [10]: 12.7 µg/mL
IC50 (µg/ml), TZM-bl cell neutralization assay, pseudovirus [11]: > 50 µg/mL
IC80 neutralization [12]: > 50 µg/mL
IC80 neutralization [13]: > 50 µg/mL
IC80 neutralization [14]: 6.6 µg/mL
IC80 neutralization [15]: > 50 µg/mL
IC80 neutralization [16]: 2.2 µg/mL
IC80 (µg/ml), TZM-bl pseudovirus neutralization [17]: > 50 µg/mL
IC80 neutralization [18]: 10.5 µg/mL
IC80 neutralization [19]: 22.2 µg/mL
neutralization IC50 [20]: 5.16 µg/mL
neutralization IC50 [21]: 12.8 µg/mL
neutralization IC50 [22]: 3.72 µg/mL
IC80 neutralization [23]: 2.08 µg/mL
IC80 neutralization [24]: > 50 µg/mL
neutralization IC50 [25]: 20.8 µg/mL
neutralization IC50 [26]: 1.54 µg/mL
IC80 neutralization [27]: > 50 µg/mL
IC80 neutralization [28]: 0.485 µg/mL
neutralization IC50 [29]: 20.2 µg/mL
neutralization IC50 [30]: 24.1 µg/mL
IC80 neutralization [31]: 48.2 µg/mL
IC80 neutralization [32]: > 50 µg/mL
IC50 (µg/ml), TZM-bl cell neutralization assay, pseudovirus [33]: 8.29 µg/mL
neutralization IC50 [34]: > 50 µg/mL
IC80 neutralization [35]: > 50 µg/mL
IC80 neutralization [36]: > 50 µg/mL
IC80 neutralization [37]: 25.6 µg/mL
IC80 neutralization [38]: > 50 µg/mL
IC80 neutralization [39]: > 50 µg/mL
IC80 neutralization [40]: 11.8 µg/mL
neutralization IC50 [41]: > 50 µg/mL
neutralization IC50 [42]: 16.7 µg/mL
IC80 neutralization [43]: 6.62 µg/mL
IC80 neutralization [44]: 6.6 µg/mL
neutralization IC50 [45]: > 50 µg/mL
neutralization IC50 [46]: > 50 µg/mL

4E10 (antibody)
IC80 neutralization [1]: 4.99 µg/mL
IC80 neutralization [2]: 3.85 µg/mL
IC80 neutralization [3]: > 50 µg/mL
IC80 neutralization [4]: 17.1 µg/mL
IC50 (µg/ml), TZM-bl cell neutralization assay, pseudovirus [5]: 0.194 µg/mL
IC80 neutralization [6]: 0.474 µg/mL
IC80 neutralization [7]: 22.7 µg/mL
IC80 neutralization [8]: 5.43 µg/mL
neutralization IC50 [9]: 0.621 µg/mL
neutralization IC50 [10]: 1.44 µg/mL
IC50 (µg/ml), TZM-bl cell neutralization assay, pseudovirus [11]: 13.8 µg/mL
IC80 neutralization [12]: 6.31 µg/mL
IC80 neutralization [13]: 4.88 µg/mL
IC80 neutralization [14]: 1.73 µg/mL
IC80 neutralization [15]: 3.04 µg/mL
IC80 neutralization [16]: 0.472 µg/mL
IC80 (µg/ml), TZM-bl pseudovirus neutralization [17]: 10.4 µg/mL
IC80 neutralization [18]: 0.647 µg/mL
IC80 neutralization [19]: 3.96 µg/mL
neutralization IC50 [20]: 0.45 µg/mL
neutralization IC50 [21]: 1.97 µg/mL
neutralization IC50 [22]: 0.688 µg/mL
IC80 neutralization [23]: 0.936 µg/mL
IC80 neutralization [24]: 22.2 µg/mL
neutralization IC50 [25]: 2.14 µg/mL
neutralization IC50 [26]: 0.248 µg/mL
IC80 neutralization [27]: 12.5 µg/mL
IC80 neutralization [28]: 0.089 µg/mL
neutralization IC50 [29]: 2.33 µg/mL
neutralization IC50 [30]: 1.77 µg/mL
IC80 neutralization [31]: 7.5 µg/mL
IC80 neutralization [32]: 0.762 µg/mL
IC50 (µg/ml), TZM-bl cell neutralization assay, pseudovirus [33]: 0.084 µg/mL
neutralization IC50 [34]: 4.66 µg/mL
IC80 neutralization [35]: 32.4 µg/mL
IC80 neutralization [36]: 9.61 µg/mL
IC80 neutralization [37]: 4.55 µg/mL
IC80 neutralization [38]: 5.08 µg/mL
IC80 neutralization [39]: 6.7 µg/mL
IC80 neutralization [40]: 3.08 µg/mL
neutralization IC50 [41]: 11.5 µg/mL
neutralization IC50 [42]: 0.847 µg/mL
IC80 neutralization [43]: 1.07 µg/mL
IC80 neutralization [44]: 4.56 µg/mL
neutralization IC50 [45]: 15.9 µg/mL
neutralization IC50 [46]: 5.63 µg/mL
